This is an account of results in publication PMC3723540, “A Moonlighting Enzyme Links Escherichia coli Cell Size with Central Metabolism” (PLoS Genetics, 2013).

Series [1] concerns the molecule itself. The experiment in a line: 90° angle light scattering; 5 µM FtsZ in polymerization buffer (50 mM MES, 2.5 mM MgCl2, 1 mM EGTA, 50 mM KCl, pH 6.5), assembly started with 1 mM GTP, 30°C.
For series [2], the target named is FtsZ (tubulin-like cell division protein) of E. coli, untagged (E. coli) (UniProt P0A9A6).
For series [3] the target is unchanged. The source holds these as a separate data set.

B1: FtsZ (tubulin-like cell division protein) of E. coli, untagged (natural protein, UniProt P0A9A6 1-383, looked up)
chain: MFEPMELTNDAVIKVIGVGGGGGNAVEHMVRERIEGVEFFAVNTDAQALRKTAVGQTIQIGSGITKGLGAGANPEVGRNAADEDRDALRAALEGADMVFIAAGMGGGTGTGAAPVVAEVAKDLGILTVAVVTKPFNFEGKKRMAFAEQGITELSKHVDSLITIPNDKLLKVLGRGISLLDAFGAANDVLKGAVQGIAELITRPGLMNVDFADVRTVMSEMGYAMMGSGVASGEDRAEEAAEMAISSPLLEDIDLSGARGVLVNITAGFDLRLDEFETVGNTIRAFASDNATVVIGTSLDPDMNDELRVTVVATGIGMDKRPEITLVTNKQVQQPVMDRYQQHGMAPLTQEQKPVAKVVNDNAPQTAKEPDYLDIPAFLRKQAD
notes: FtsZ, cell division protein of E. coli, in its native (untagged) form; also called E. coli FtsZ; source: untagged
B1: the binding result in series [1] is listed as “binds”.

B2: OpgH^N (N-terminal cytoplasmic domain of the glucosyltransferase OpgH, residues 1-138) (domain or fragment)
chain: MNKTTEYIDAMPIAASEKAALPKTDIRAVHQALDAEHRTWAREDDSPQGSVKARLEQAWPDSLADGQLIKDDEGRDQLKAMPEAKRSSMFPDPWRTNPVGRFWDRLRGRDVTPRYLARLTKEEQESEQKWRTVGTIRR
As for B2, the apparent critical concentration (CcApp) of FtsZ for GTP hydrolysis at 0 µM (0.69 µM), 2.5 µM (1.31 µM), 5 µM (1.85 µM) and 10 µM OpgH^N (4.08 µM) in series [2] turned out to be 4.08 µM. Also, in series [3], the reduction of FtsZ's GTP hydrolysis (regenerative coupled GTPase assay), 5 µM FtsZ, ratios FtsZ:OpgH^N of 1:1 (25%), 1:1.5 (55%) and 1:2 (84%); FtsZ alone 5.1 GTP/minute/FtsZ is 84%.
